Experimental data: article PMC2852419, “Identification of SOX9 Interaction Sites in the Genome of Chondrocytes”

Target: SOX9 (Homo sapiens, UniProt P48436 1-509)
Assay: EMSA; EMSA with recombinant human SOX9 and 32P probes as in cited ref 67; buffer, salt, pH and temperature not given
Details: protein: recombinant; chain copies: 2; label: 32P-dCTP Klenow fill-in

Sequence of SOX9 (P48436 whole entry): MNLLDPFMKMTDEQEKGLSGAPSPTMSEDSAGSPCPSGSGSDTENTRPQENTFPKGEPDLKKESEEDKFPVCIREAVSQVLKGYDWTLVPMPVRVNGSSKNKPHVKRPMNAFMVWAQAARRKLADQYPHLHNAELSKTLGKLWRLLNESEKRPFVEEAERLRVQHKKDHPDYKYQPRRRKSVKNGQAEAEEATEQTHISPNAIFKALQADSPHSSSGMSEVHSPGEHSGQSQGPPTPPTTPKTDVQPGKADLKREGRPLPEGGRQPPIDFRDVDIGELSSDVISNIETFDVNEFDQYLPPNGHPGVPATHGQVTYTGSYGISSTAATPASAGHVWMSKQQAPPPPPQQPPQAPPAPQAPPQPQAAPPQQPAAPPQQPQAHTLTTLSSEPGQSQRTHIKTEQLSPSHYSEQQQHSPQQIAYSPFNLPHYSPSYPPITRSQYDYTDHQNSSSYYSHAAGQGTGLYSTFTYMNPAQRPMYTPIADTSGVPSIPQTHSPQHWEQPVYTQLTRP

B1: Col2a1 intron 6 mutant (dsDNA)
DNA 1: GGCAGATAGCTGTTTTCCTTTTCGACAGAAACCCAG
DNA 2: CTGGGTTTCTGTCGAAAAGGAAAACAGCTATCTGCC
  binding result: no binding

B2: Col2a1 intron 6 (human) (dsDNA)
DNA 1: GGCAGGTAACTGAGGACTTTCTTTATAGAATCCCAG
DNA 2: CTGGGATTCTATAAAGAAAGTCCTCAGTTACCTGCC
  binding result: binds
